Experimental data as given in patent US20130224191A1, “NOTUM PROTEIN MODULATORS AND METHODS OF USE” (priority 2010, published 2013).
Entries after “also recorded” stand apart in the source; their conditions may differ.

Assays:
[1] = molecular target: T1, mouse Notum (construct not specified at the place of use) (mouse, UniProt Q8R116 20-503, limits assumed); experiment: ELISA, Notum coated directly on plate
T1 construct: Purified antigen from transient transfection of mouse Notum cDNA; also called murine Notum
T1 sequence (looked up): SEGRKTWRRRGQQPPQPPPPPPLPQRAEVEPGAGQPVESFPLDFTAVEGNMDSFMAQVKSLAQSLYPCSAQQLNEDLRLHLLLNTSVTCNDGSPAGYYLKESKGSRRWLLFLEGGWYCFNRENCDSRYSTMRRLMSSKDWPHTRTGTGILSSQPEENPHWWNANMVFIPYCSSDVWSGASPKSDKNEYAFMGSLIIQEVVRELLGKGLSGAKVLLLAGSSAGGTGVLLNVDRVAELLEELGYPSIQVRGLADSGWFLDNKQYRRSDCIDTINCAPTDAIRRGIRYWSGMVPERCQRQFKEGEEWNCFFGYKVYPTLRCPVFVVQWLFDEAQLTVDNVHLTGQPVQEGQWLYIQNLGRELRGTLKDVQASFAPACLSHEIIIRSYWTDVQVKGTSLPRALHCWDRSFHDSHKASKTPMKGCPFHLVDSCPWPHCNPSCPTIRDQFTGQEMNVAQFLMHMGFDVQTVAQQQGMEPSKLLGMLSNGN

[2] = molecular target: T2, Notum (Homo sapiens, UniProt Q6P988); experiment: Epitope mapping ELISA, human Notum; type: binding; parameters: made in house
T2 sequence (Q6P988 20-496): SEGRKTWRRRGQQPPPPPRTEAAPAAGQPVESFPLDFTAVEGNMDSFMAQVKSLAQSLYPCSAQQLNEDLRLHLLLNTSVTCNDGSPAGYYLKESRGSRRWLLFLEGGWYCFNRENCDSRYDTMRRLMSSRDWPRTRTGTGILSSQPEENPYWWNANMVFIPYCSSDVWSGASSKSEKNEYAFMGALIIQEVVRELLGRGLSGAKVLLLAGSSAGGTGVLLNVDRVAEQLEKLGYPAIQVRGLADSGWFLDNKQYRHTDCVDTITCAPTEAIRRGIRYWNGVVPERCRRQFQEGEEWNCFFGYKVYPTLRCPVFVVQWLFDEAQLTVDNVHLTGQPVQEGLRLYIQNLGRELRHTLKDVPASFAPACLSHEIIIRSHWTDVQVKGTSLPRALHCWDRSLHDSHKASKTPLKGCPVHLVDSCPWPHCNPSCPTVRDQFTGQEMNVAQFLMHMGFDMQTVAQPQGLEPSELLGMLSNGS
Experimental: Binding of SC2.D2.2 and other mouse mAbs to purified Notum molecules generated from transient transfection of Human and Mouse Notum cDNAs were tested using ELISA assay with human Notum, mouse Notum and chimeric human/mouse Notum coated directly on ELISA plate. Binding of anti-Notum mAbs was detected with HRP-conjugated goat anti mouse antibody and followed by colorimetric horseradish peroxidase substrate (TMB substrate Thermo Scientific). The absorbance of each well of the ELISA plates was measured at 450 nm on a microplate autoreader.

[3] = molecular target: T3, hNotum (Homo sapiens, UniProt Q6P988); experiment: Inhibition of hNotum lipase activity (Tween 20); type: biochemical; conditions: preincubation, various concentrations
T3 construct: 8x-His; Strep-tag II; IgK signal peptide/leader of the pSEC-CAG vector (N); made in house; host or cells: HEK293T (adherent) / suspension 293 cells
T3 sequence (Q6P988 20-496): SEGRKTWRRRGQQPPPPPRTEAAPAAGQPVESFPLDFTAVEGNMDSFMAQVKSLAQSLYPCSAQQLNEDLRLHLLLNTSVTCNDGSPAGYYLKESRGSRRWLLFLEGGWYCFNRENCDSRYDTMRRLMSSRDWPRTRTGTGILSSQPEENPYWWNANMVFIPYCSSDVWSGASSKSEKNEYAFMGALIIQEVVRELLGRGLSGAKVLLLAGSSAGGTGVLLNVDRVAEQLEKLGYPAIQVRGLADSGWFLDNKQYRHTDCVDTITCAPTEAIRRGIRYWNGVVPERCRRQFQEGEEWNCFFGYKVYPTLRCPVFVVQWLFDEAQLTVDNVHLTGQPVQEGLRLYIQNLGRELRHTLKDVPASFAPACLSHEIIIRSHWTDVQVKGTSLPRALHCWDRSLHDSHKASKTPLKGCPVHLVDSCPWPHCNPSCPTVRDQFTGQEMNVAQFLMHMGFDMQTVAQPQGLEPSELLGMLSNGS
Experimental: Briefly, recombinant hNotum (1 μg/well) was added to an assay buffer containing 50 mM Tris, pH 7.4, 33.3 mM CaCl2, and 0.33% Tween-20. When the Tween 20 monolauryl group is cleaved by lipases (e.g. hNotum), the free fatty acid forms an insoluble complex with the Ca^2+ cations resulting in a turbid solution, the OD of which can be measured at 405 nm to provide a measure of lipase activity. As a positive control, the activity of porcine pancreatic lipase (Sigma Aldrich) was measured in the same assay.
In order to take advantage of this enzymatic property and further exemplify the properties of the present invention, an assay was run to determine the effects of Notum modulators on the lipolytic activity of Notum. To that end, various concentrations of SC2.D2.2 were preincubated with hNotum for a set period prior to adding the mixture to the assay buffer and measuring the resulting enzymatic activity as described above. The results of the assay are graphically represented in FIG. 20

[4] = molecular target: T4, murine Notum-His (Mus musculus, UniProt Q8R116); experiment: Neutralization of murine Notum in 293.TCF assay; type: cell-based
T4 construct: His tag; made in house
T4 sequence (Q8R116 20-503): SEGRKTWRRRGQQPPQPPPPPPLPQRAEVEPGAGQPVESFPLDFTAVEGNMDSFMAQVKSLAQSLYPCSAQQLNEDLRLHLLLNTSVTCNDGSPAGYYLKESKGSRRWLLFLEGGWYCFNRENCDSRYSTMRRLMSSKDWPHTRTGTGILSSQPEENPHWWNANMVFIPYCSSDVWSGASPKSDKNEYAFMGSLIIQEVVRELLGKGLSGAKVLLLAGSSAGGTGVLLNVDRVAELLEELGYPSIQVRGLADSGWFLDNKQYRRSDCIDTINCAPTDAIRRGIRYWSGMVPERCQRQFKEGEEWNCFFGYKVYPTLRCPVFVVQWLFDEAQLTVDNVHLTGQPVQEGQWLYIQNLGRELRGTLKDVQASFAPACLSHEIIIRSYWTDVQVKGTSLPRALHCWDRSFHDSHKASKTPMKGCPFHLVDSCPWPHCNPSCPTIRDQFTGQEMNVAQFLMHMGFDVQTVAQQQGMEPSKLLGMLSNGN
Experimental: Using the 293.TCF cells, purified SC2.D2.2 and SC2.A106 antibodies were tested for their ability to neutralize murine Notum-His or macaque Notum-Fc activity as follows. 2.5×10^4 293.TCF cells were plated per well of a 96-well tissue culture plate in 50 μL of serum-free medium. After 23 hours of serum starvation, 10 μL of DMEM+0.2% FBS containing the Notum proteins at various concentrations were mixed with 15 μL of purified antibody at various concentrations, and allowed to incubate for 5 minutes at room temperature. The 25 μL antibody/Notum mixture was then added to the 293.TCF cells. After 1 hour, 25 μL of Wnt3A or control L-cell CM were added to each well. Eighteen hours after addition of CM, 100 μL of One-Glo solution (ProMega Corp.) was added to each well. The contents of each well were mixed thoroughly to lyse the cells, 100 μL of lysate transferred to black 96-well plates, and the luminescence read after 5 minutes.

[5] = molecular target: T3, hNotum; experiment: Inhibition of hNotum esterase activity; type: biochemical; conditions: preincubation with hNotum
Experimental: Briefly, PNPA or PNPB were dissolved/diluted in isopropanol to final concentrations of 10 mM. These substrate solutions were diluted 1:10 into assay buffer (0.1% gum arabic, 2.3 mg/mL sodium dexoycholate, 1×PBS) and incubated with defined amounts of hNotum enzyme, and the enzymatic release of the chromophore p-nitrophenol monitored by absorbance measurements at 405 nm.
The results presented immediately above indicate that the measured esterase activity may be used to provide an assay that allows for the further characterization of the disclosed Notum modulators. […] As may be seen in FIG. 18A an increase in hNotum levels increases measured enzymatic activity even, to some extent, in the case where the SC2.D2.2 antibody is present. Conversely, FIG. 18B provides a dose response curve of measured enzymatic activity where the amount of hNotum is fixed at 1 μg/mL and the concentration of SC2.D2.2 is varied. […] In contrast a control antibody (MOPC) has no effect on the esterase activity of Notum (data not shown).

B1: SC2.D2.2 (antibody, V domains shown)
VH: DVQLVESGGGLVQPGGSRKISCAASGFTFSSYGMHWVRQAPEKGLEWVAYISSSTVTTYYADTVKGRFTISRDNANNTLFLQMTSLRSEDTAMYYCSRQNWDGGYFDVWGAGTTVTVSS
VL: DIVLTQSLASLAVSLGQRATISCRASKSVSSSGYSYMHWYQQKPGQPPKLLIYLASNLESGVPARFSGSGSGTDFTLNIHPVEEEDAATYYCQHSRALPLTFGAGTKLELKR
notes: also called murine SC2.D2.2
Question: What does the source list for B1?
Answer: binding result [1]: no binding; binding to human Notum [2]: confirmed the binding; effect on lipase activity of Notum [3]: substantially eliminate the lipase activity of Notum; inhibition of murine Notum activity [4]: did not inhibit; also recorded: without inhibiting murine or macaque versions of the protein; effect on esterase activity of hNotum [5]: greatly reduced esterase activity
